The record followed here is patent US5717058A, “Peptide inhibitors of tax-dependent transcription” (priority 1994, dated 1998).

Series [1] has as its target T1, Tax-CREB interaction (Homo sapiens, UniProt P16220).
T1 construct: made in house
Kind of series: EMSA, inhibition of Tax-mediated enhancement of CREB binding to HTLV-I 21 bp repeat DNA. The note with it: for fold enhancement: 200 nM Tax. The text has this: The HTLV-I transactivator Tax enhances the binding of CREB to the 21 bp repeat sequences contained in the HTLV-I LTR (Zhao and Giam (1992) PNAS 89:7070-7074; Franklin et al. 1993 J. Biol. Chem. 268:21225-21231; Wagner and Green, 1993 Science 262:395-399). We are testing whether peptides representing portions of the primary sequence of Tax can disrupt the Tax-CREB interaction as measured by EMSA.
Purified recombinant CREB was isolated as previously published (Franklin et al. 1993 J. Biol. Chem. 268:21225-21231) and active DNA-binding CREB was purified by heparin-agarose chromatography. Purified recombinant TaxH6 (contains a six-histidine purification tag at the C-terminus of Tax) was isolated an purified as previously published (Zhao and Giam (1991) PNAS 88:12445-11449; Franklin et al. 1993 J. Biol. Chem. 268:21225-21231). Peptides were synthesized and purified as described in Example 1. The third HTLV-I 21 bp repeat (Seq. ID. No. 43) was cloned into the Bgl II site of pUC19. The 70 bp DNA probe fragment was excised with Kpn I and Hind III, phosphatased and gel purified.
EMSA reactions contained 0.1-2.0 nM [^32 P]end-labeled double stranded site 3 probe, 5-50 ng poly (dI-dC) carrier DNA, 1-5 nM purified recombinant CREB, 100-200 nM purified recombinant TaxH6, 15 mM HEPES pH 8.0, 1.5% DMSO, 25 mM Tris-HCl pH 7.9, 6.25 mM MgCl2, 0.5 mM EDTA, 0.5 mM DTT, 60-120 mM KCl, and 10% (v/v) glycerol, and candidate peptide inhibitors in a 20 μl reaction volume. CREB was incubated with the peptides or mock buffer (5% DMSO 50 mM HEPES pH 8.0) for 2-5 min. at room temp. then TaxH6 and DNA mixture were added. The complete reaction mixture was incubated 10-20 min. further at room temp. then analyzed on 5% non-denaturing polyacrylamide gels (49:1, acrylamide:N,N-methylene bisacrylamide). The electrophoresis buffer contained 0.04M Tris, 0.306M glycine, pH 8.5, and 0.1% Nonidet P-40. Gels were dried were autoradiographed. Relative amounts of protein-DNA complex were quantitated using Phosphor Image Analysis.
The primary amino acid sequence of Tax was divided into 29 peptides 20 amino adds in length with an overlap of eight amino acids (see Detailed Description of the Invention and Example 1). The number of the first amino acid in each peptide corresponds to its position in the primary sequence of Tax. Six peptides were tested by EMSA for inhibition of Tax-mediated enhancement. The percentage of radiolabeled DNA probe shifted into protein-DNA complexes in each reaction was quantitated by phosphorimage analysis. Fold enhancement was calculated by dividing the amount of probe shifted in each reaction by the amount of probe shifted in reactions containing CREB, DNA and mock peptide buffer (Table 1). Reactions in Table 1 contained 0.5 nM radiolabeled DNA probe, 10 ng poly dIdC, 1.25% v/v DMSO, 12.5 mM HEPES pH 8.0, 25 mM Tris pH 7.9, 6.25 mM MgCl2, 75 mM KCl, 0.5 mM EDTA, 0.5 mM DTT, 10% v/v glycerol, and CREB, Tax and peptide as indicated in a final volume of 20 μL.
Reactions in Table 2 contained 0.5 nM radiolabeled DNA probe, 10 ng poly dIdC, 1.75% v/v DMSO, 17.5 mM HEPES pH 8.0, 25 mM Tris pH 7.9, 6.25 mM MgCl2, 75 mM KCl, 0.5 mM EDTA, 0.5 mM DTT, 10% v/v glycerol, and CREB, Tax and peptide as indicated in a final volume of 20 μL. Protein-DNA complexes were quantitated by phosphorimage analysis. Fold enhancement was calculated by dividing the amount of complex formed in each reaction by the amount of complex formed in a reaction containing CREB, DNA, mock Tax buffer and mock peptide buffer.
Reactions in Table 3 contained 0.5 nM radiolabeled DNA probe, 10 ng poly dIdC, 1.75% v/v DMSO, 17.5 mM HEPES pH 8.0, 25 mM Tris pH 7.9, 6.25 mM MgCl2, 75 mM KCl, 0.5 mM EDTA, 0.5 mM DTT, 10% v/v glycerol, and CREB, Tax and peptide as indicated in a final volume of 20 μL. Amount of complex was quantitated by densitometry (PDI). […]
A general note: In EMSA bound probe runs differently from free probe, usually more slowly.

The nature of series [2]: solubility in aqueous solution. The format is physicochemical.

Entries after “also recorded” stand apart in the source; their conditions may differ. No end group written: not given here.

T1 sequence (P16220 whole entry): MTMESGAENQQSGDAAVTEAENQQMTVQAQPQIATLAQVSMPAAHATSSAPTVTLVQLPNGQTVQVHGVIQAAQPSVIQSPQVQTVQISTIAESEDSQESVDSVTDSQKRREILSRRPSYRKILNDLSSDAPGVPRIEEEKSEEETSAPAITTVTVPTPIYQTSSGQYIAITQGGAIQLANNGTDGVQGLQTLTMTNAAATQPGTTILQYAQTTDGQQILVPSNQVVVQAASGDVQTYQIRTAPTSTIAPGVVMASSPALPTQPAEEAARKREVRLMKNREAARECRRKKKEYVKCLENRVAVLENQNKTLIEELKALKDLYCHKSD

For “TX313: 20 amino acid Tax peptide beginning at amino acid 313, overlaps TX301 by 8 amino acids”, the “effect on Tax-mediated enhancement of CREB binding to DNA (complex formation), in words” value in series [1] (EMSA, CREB + Tax + peptide) was “slight enhancement of complex formation at some concentrations”. Further, the fold enhancement in series [1] (Table 4, TX313 35 μM, 3.4 nM CREB, Tax without peptide 4.48, densitometry) is given as 5.16 fold; in series [1] (Table 4, TX313 70 μM, 3.4 nM CREB, Tax without peptide 4.48, densitometry) it was 5.60 fold; in series [1] (Table 4, TX313 140 μM, 3.4 nM CREB, Tax without peptide 4.48, densitometry), 4.49 fold. The “dose dependence of the effect on Tax-mediated enhancement, in words” value in series [1] (titration in EMSA) was “did not have a dose dependent affect; also recorded: no dose dependence”.
Take `CC(C)C[C@H](NC(=O)[C@H](CC(C)C)NC(=O)[C@H](Cc1c[nH]cn1)NC(=O)[C@H](CC(C)C)NC(=O)[C@H](CO)NC(=O)[C@H](Cc1c[nH]cn1)NC(=O)[C@H](Cc1ccccc1)NC(=O)[C@@H](N)CO)C(=O)N[C@@H](Cc1ccccc1)C(=O)N[C@@H](CCC(=O)O)C(N)=O` [TX301-310, SFHSLHLLFE]: in series [2], the “solubility in aqueous solution, in words” value is “sparingly soluble”.
With FLSEFLHSHL [SCM2, reference compound], the fold enhancement in series [1] (Table 8, SCM2 0.75 μM, 2.3 nM CREB, Tax without peptide 17.0) is 17.9 fold; in series [1] (Table 8, SCM2 1.50 μM, 2.3 nM CREB, Tax without peptide 17.0), 17.8 fold; in series [1] (Table 8, SCM2 7.50 μM, 2.3 nM CREB, Tax without peptide 17.0), 14.5 fold; in series [1] (Table 8, SCM2 15.00 μM, 2.3 nM CREB, Tax without peptide 17.0), 9.7 fold; in series [1] (Table 8, SCM2 75.00 μM, 2.3 nM CREB, Tax without peptide 17.0) it was 3.3 fold; in series [1] (Table 8, SCM2 150.00 μM, 2.3 nM CREB, Tax without peptide 17.0) it was 1.1 fold.
`CC[C@H](C)[C@H](NC(=O)[C@@H]1CCCN1C(=O)[C@@H](NC(=O)[C@H](CC(N)=O)NC(=O)[C@@H](NC(=O)[C@H](Cc1ccc(O)cc1)NC(=O)[C@H](CCC(=O)O)NC(=O)[C@H](CCC(=O)O)NC(=O)[C@H](Cc1ccccc1)NC(=O)[C@H](CC(C)C)NC(=O)[C@H](CC(C)C)NC(=O)[C@H](Cc1c[nH]cn1)NC(=O)[C@H](CC(C)C)NC(=O)[C@H](CO)NC(=O)[C@H](Cc1c[nH]cn1)NC(=O)[C@H](Cc1ccccc1)NC(=O)[C@@H](N)CO)[C@@H](C)O)[C@@H](C)CC)C(=O)N[C@@H](CO)C(=O)N[C@@H](CC(C)C)C(=O)N[C@@H](CC(C)C)C(N)=O` [TX301]: the “solubility in aqueous solution, in words” value in series [2] is “limited solubility in aqueous solutions; also recorded: sparingly soluble”.
Still for that read-out and setting: for `CC(C)C[C@H](NC(=O)[C@H](CC(C)C)NC(=O)[C@H](Cc1c[nH]cn1)NC(=O)[C@H](CC(C)C)NC(=O)[C@H](CO)NC(=O)[C@H](Cc1c[nH]cn1)NC(=O)[C@H](Cc1ccccc1)NC(=O)[C@@H](N)CO)C(=O)N[C@@H](Cc1ccccc1)C(=O)N[C@@H](CCC(=O)O)C(=O)N[C@@H](CCC(=O)O)C(=O)N[C@@H](CCC(=O)O)C(N)=O` [Seq ID No. 54, SFHSLHLLFEEE] the value was “more soluble”; for `CC(C)C[C@H](NC(=O)[C@H](CC(C)C)NC(=O)[C@H](Cc1c[nH]cn1)NC(=O)[C@H](CC(C)C)NC(=O)[C@H](CO)NC(=O)[C@H](Cc1c[nH]cn1)NC(=O)[C@H](Cc1ccccc1)NC(=O)[C@H](CO)NC(=O)CNC(=O)CNC(=O)[C@H](CCC(=O)O)NC(=O)[C@@H](N)CCC(=O)O)C(=O)N[C@@H](Cc1ccccc1)C(=O)N[C@@H](CCC(=O)O)C(N)=O` [Seq ID No. 55, EEGGSFHSLHLLFE], “more soluble”; for `CC(C)C[C@H](NC(=O)[C@H](CC(C)C)NC(=O)[C@H](Cc1c[nH]cn1)NC(=O)[C@H](CC(C)C)NC(=O)[C@H](CO)NC(=O)[C@H](Cc1c[nH]cn1)NC(=O)[C@H](Cc1ccccc1)NC(=O)[C@H](CO)NC(=O)CNC(=O)CNC(=O)[C@H](CCC(=O)O)NC(=O)[C@@H](N)CCC(=O)O)C(=O)N[C@@H](Cc1ccccc1)C(=O)N[C@@H](CCC(=O)O)C(=O)N[C@@H](CCC(=O)O)C(=O)N[C@@H](CCC(=O)O)C(N)=O` [Seq ID No. 56, EEGGSFHSLHLLFEEE], “more soluble”.
For HSLHLLFEEY-NH2 [TX303-313, HSLHLLFEEY], the “solubility in aqueous solution, in words” value in series [2] is listed as “sparingly soluble”.
